Experimental data taken from patent US20060051755A1.

Biological target: UbAMC (Homo sapiens (Human)) (UniProt P0CG48)

Km, fluorogenic ubiquitin cleavage assay: 0.5 µM
Substance: GST-Bap-1 (enzyme)
